Source: patent publication US20130089554A1 (EMERGENT PRODUCT DEVELOPMENT SEATTLE, published 2013)

T1: RON Sema-PSI-AFH protein (human, UniProt Q04912 25-568)
T1 construct: Produced in CHOK1SV cells; also called soluble RON Sema-PSI-AFH; not shown: c-terminal tag including avidin, 3xFLAG and 6x histidine tags
T1 chain: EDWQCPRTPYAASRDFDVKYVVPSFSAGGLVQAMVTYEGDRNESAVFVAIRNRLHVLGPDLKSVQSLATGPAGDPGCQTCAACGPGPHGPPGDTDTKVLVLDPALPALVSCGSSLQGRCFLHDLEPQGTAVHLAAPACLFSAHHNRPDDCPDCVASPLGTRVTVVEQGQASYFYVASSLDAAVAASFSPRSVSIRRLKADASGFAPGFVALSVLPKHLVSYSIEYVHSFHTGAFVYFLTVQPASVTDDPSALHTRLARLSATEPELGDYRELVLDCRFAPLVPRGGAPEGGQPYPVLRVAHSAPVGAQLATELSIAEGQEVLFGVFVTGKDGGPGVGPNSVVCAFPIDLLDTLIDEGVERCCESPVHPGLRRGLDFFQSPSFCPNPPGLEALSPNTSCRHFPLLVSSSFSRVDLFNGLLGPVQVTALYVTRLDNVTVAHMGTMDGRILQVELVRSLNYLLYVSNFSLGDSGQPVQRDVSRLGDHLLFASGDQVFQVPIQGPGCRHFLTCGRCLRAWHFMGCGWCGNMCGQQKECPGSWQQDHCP


Key:
[1] = target: T2, human RON (recepteur d'origine Nantaise, MST1R), full length on cells (human, UniProt Q04912 25-1400); experiment: flow cytometry, NIH/3T3 cells transfected with human RON, hybridoma supernatant
T2 construct: Over-expressed on transfected NIH/3T3 cells, or native on BxPC-3 and MDA-MB-453 cells; also called native human RON
Description: NIH/3T3 cells transfected with human or macaque RON or empty vector, were dissociated with trypsin and stained at 1.6×10⁵ cells/sample on ice with hybridoma supernatants or purified antibodies diluted in Staining Buffer (2% FBS in Dulbecco's PBS). Unlabeled murine IgG (SouthernBiotech, Birmingham, Ala.) and the DX07 anti-RON β-chain antibody (Santa Cruz Biotechnology, Santa Cruz, Calif.) were employed as negative and positive controls respectively. Murine antibodies were detected with R-PE-conjugated goat anti-mouse IgG (SouthernBiotech). Samples were analyzed on a BD FACSCalibur flow cytometer fitted with an HTS using PlateManager and CellQuest Pro software (BD Biosciences, San Jose, Calif.). Data was plotted using FlowJo software (Tree Star, Ashland, Oreg.).
NIH/3T3 cells transfected with empty vector (dashed), human RON (dotted) or Macaca mulatta RON (solid) were stained with secondary antibody alone (FIG. 1A), 1 mg/ml murine IgG (FIG. 1B), 1 mg/ml DX07 anti-RON antibody (FIG. 1C), RON-e01 anti-RON hybridoma supernatant (FIG. 1D) or RON-f01 anti-RON hybridoma supernatant (FIG. 1E).

[2] = target: T3, recombinant RON Sema-PSI protein (R&D Systems #1947-MS) (human, UniProt Q04912 25-571); experiment: ELISA, plate coated with 1 µg/ml recombinant RON Sema-PSI
T3 construct: Bought protein, expressed in NS0 cells; not shown: carboxyl-terminal histidine tag
Experimental: (§1) To determine binding of murine antibodies to the Sema-PSI domain of RON, 96-well EIA/RIA microplates were coated with 1 μg/ml recombinant RON Sema-PSI (R&D Systems #1947-MS, Minneapolis, Minn.). This protein includes the Sema and PSI domains of human RON (Glu 25-Leu 571; see SEQ ID NO:784) coupled to a carboxyl-terminal histidine tag and expressed in the NS0 mouse myeloma cell line. Plates were blocked with 10% FBS in DPBS prior to adding hybridoma supernatants diluted […] in serum diluent. Murine antibodies bound to recombinant RON Sema-PSI were detected as described above.
(§2) “Diluent only” samples represent background binding in each assay when only serum diluent was run as the sample. As a positive control for IgG measurement and recombinant RON Sema-PSI binding, 250 ng/ml of an anti-human RON antibody (R&D Systems #MAB691, Minneapolis, Minn.) was tested in both ELISAs.

[3] = target: T1, RON Sema-PSI-AFH protein; experiment: SPR (Biacore T100); antibody captured by immobilized anti-mouse Fc, soluble RON Sema-PSI-AFH flowed over
Experimental: (§3) The binding kinetics of RON-f murine antibody, SMIP and Interceptor to soluble RON Sema-PSI-AFH were determined using a Biacore T100 (GE Healthcare, Piscataway, N.J.). Anti-RON murine antibody was captured using immobilized anti-mouse Fc polyclonal antibody while the SMIP and Interceptor were captured by anti-human Fc monoclonal antibody. The capture antibodies, both from GE Healthcare, were covalently conjugated to a carboxylmethyl dextran surface (CM4) via amines using N-ethyl-N′-(3-dimethylaminopropyl)-carbodiimide hydrochloride and N-hydroxysuccinimide. The unoccupied sites of the activated surface were blocked by ethanolamine. […] During each cycle, a single concentration of soluble RON Sema-PSI-AFH was injected and then allowed to dissociate. At the end of each cycle, the surface was regenerated gently using 3M MgCl₂ which dissociates protein bound to the capture antibodies. Signal associated with binding to the reference cell was used to subtract for bulk refractive changes and blank (buffer-only) injections were used to correct for drift and system noise.
(§4) Kinetic parameters and affinities were determined using BIAevaluation software. The kₐ (M⁻¹s⁻¹) and kd (s⁻¹) rates of the interaction were used to calculate the affinity constant, KD (M), of the antibody/receptor interaction. The KD is defined as the ratio of the kd and kₐ constants (kd/kₐ). The RON-f01 murine antibody was tested in a single experiment while the RON-f02 SMIP and RON-f03 Interceptor molecules were each tested in three independent experiments. RON-f molecules were captured on a sensor chip with immobilized anti-Fc while soluble RON Sema-PSI-AFH protein was flowed over the surface at varying concentrations.

[4] = target: T3, recombinant RON Sema-PSI protein (R&D …); experiment: ELISA, plate coated with 1 µg/ml recombinant RON Sema-PSI, hybridoma supernatants
Experimental: as §1, §2

[5] = target: T1, RON Sema-PSI-AFH protein; experiment: SPR (Biacore T100); Interceptor captured by immobilized anti-human Fc, soluble RON Sema-PSI-AFH flowed over
Experimental: as §3, §4

| binding result [1] | binding result [2] | Kd [3] [nM] | koff [3] [s⁻¹] | kon [3] [M⁻¹ s⁻¹] | binding result [4] | Kd [5] [nM] | koff [5] [s⁻¹] | kon [5] [M⁻¹ s⁻¹] | Binder |
| --- | --- | --- | --- | --- | --- | --- | --- | --- | --- |
| binds | no binding |  |  |  |  |  |  |  | RON-e01 murine antibody (11H09 hybridoma) (antibody, V domains shown, Murine monoclonal antibody from a hybridoma, used as supernatant or purified; also called RON-e01 Antibody) VH: QVQLQQSGAELAKPGASVKMSCKSSGYTFTSYWIHWVKERPGQGLEWIGYIYPTTGYTESNQKFKDKATLTADKSSSTAYMQLSSLTSEDSAVYYCFLLRPWYFDVWGAGTTVTVSS VL: DIQMTQSPSSLSASLGERVSLTCRASQDIGSSLSWLQQEPDGTIKRLIYSTSSLDSGVPKRFSGSRSGSDYSLTISSLESEDFVDYYCLQYASSPWTFGGGTKLEIK |
| binds |  | 0.15 | 9.49e-05 | 632000 | binds |  |  |  | RON-f01 murine antibody (4C04 hybridoma) (antibody, V domains shown, Murine monoclonal antibody from a hybridoma; also called RON-f01 Antibody) VH: QIQLQQSGPELVKPGTSVKISCKASDYTLTDFYMNWVRQKPGQGLEWIGRIYPGTDKTRYNEKFRDKAILTVDTSSSTAYMQLSSLTSEDTAVYFCARSAYYGNYVAMDYWGQGTSVTVSL VL: DIQMTQSPASQSASLGESVTITCLASQTIGTWLAWYQQKPGKSPQLLIYAATSLADGVPSRFSASGSGTKFSFKIDSLQSEDFVSYYCQQLYNTPWTFGGGTKLEIK |
|  |  |  |  |  |  | 0.156 | 6.78e-05 | 434000 | RON-f03 Interceptor (4C04 scFv, Interceptor Pair 2) (other, also called RON-f03 2nd generation interceptor) chain 1: DIQMTQSPASQSASLGESVTITCLASQTIGTWLAWYQQKPGKSPQLLIYAATSLADGVPSRFSASGSGTKFSFKIDSLQSEDFVSYYCQQLYNTPWTFGGGTKLEIKGGGGSGGGGSGGGGSQIQLQQSGPELVKPGTSVKISCKASDYTLTDFYMNWVRQKPGQGLEWIGRIYPGTDKTRYNEKFRDKAILTVDTSSSTAYMQLSSLTSEDTAVYFCARSAYYGNYVAMDYWGQGTSVTVSSSASTKGPSVFPLAPSSKSTSGGTAALGCLVKDYFPEPVTVSWNSGALTSGVHTFPAVLQSSGLYSLSSVVTVPSSSLGTQTYICNVNHKPSNTKVDKKVRTEPKSSDKTHTCPPCPSGAPELLGGPSVFLFPPKPKDTLMISRTPEVTCVVVDVSHEDPEVKFNWYVDGVEVHNAKTKPREEQYNSTYRVVSVLTVLHQDWLNGKEYKCKVSNKALPAPIEKTISKAKGQPREPQVYTLPPSRDELTKNQVSLTCLVKGFYPSDIAVEWESNGQPENNYKTTPPVLDSDGSFFLYSKLTVDKSRWQQGNVFSCSVMHEALHNHYTQKSLSLSPGKSRTVAAPSVFIFPPSDEQLKSGTASVVCLLNNFYPREAKVQWKVDNALQSGNSQESVTEQDSKDSTYSLSSTLTLSKADYEKHKVYACEVTHQGLSSPVTKSFNRGE chain 2: TVAAPSVFIFPPSDEQLKSGTASVVCLLNNFYPREAKVQWKVDNALQSGNSQESVTEQDSKDSTYSLSSTLTLSKADYEKHKVYACEVTHQGLSSPVTKSFNRGERTEPKSSDKTHTCPPCPSGAPELLGGPSVFLFPPKPKDTLMISRTPEVTCVVVDVSHEDPEVKFNWYVDGVEVHNAKTKPREEQYNSTYRVVSVLTVLHQDWLNGKEYKCKVSNKALPAPIEKTISKAKGQPREPQVYTLPPSRDELTKNQVSLTCLVKGFYPSDIAVEWESNGQPENNYKTTPPVLDSDGSFFLYSKLTVDKSRWQQGNVFSCSVMHEALHNHYTQKSLSLSPGKSRASTKGPSVFPLAPSSKSTSGGTAALGCLVKDYFPEPVTVSWNSGALTSGVHTFPAVLQSSGLYSLSSVVTVPSSSLGTQTYICNVNHKPSNTKVDKKV |
